B1: Amphiregulin (Homo sapiens), P15514 (parent)
chain: MRAPLLPPAPVVLSLLILGSGHYAAGLDLNDTYSGKREPFSGDHSADGFEVTSRSEMSSGSEISPVSEMPSSSEPSSGADYDYSEEYDNEPQIPGYIVDDSVRVEQVVKPPQNKTESENTSDKPKRKKKGGKNGKNRRNRKKKNPCNAEFQNFCIHGECKYIEHLEAVTCKCQQEYFGERCGEKSMKTHSMIDSSLSKIALAAIAAFMSAVILTAVAVITVQLRRQYVRKYEGEAEERKKLRQENGNVHAIA

Variants of: B1
Conditions: with S100A4, P26447
Chain of S100A4, P26447 (P26447 whole entry, looked up): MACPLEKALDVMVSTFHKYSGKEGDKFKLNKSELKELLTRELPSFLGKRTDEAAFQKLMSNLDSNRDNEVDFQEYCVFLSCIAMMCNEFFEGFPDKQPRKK

| effect of a mutation on the interaction | Variant |
| --- | --- |
| decreasing interaction | MRAPLLPPAPVVLSLLILGSGHYAAGLDLNDTYSGKREPFSGDHSADGFEVTSRSEMSSGSEISPVSEMPSSSEPSSGADYDYSEEYDNEPQIPGYIVDDSVRVEQVVKPPQNKTESENTSDKPKRKKKGGKNGKNRRNRKKKNPCNAEFQNFAIHGECKYIEHLEAVTCKCQQEYFGERCGEKSMKTHSMIDSSLSKIALAAIAAFMSAVILTAVAVITVQLRRQYVRKYEGEAEERKKLRQENGNVHAIA [C154A] |
| decreasing interaction | MRAPLLPPAPVVLSLLILGSGHYAAGLDLNDTYSGKREPFSGDHSADGFEVTSRSEMSSGSEISPVSEMPSSSEPSSGADYDYSEEYDNEPQIPGYIVDDSVRVEQVVKPPQNKTESENTSDKPKRKKKGGKNGKNRRNRKKKNPCNAEFQNLCIHGECKYIEHLEAVTCKCQQEYFGERCGEKSMKTHSMIDSSLSKIALAAIAAFMSAVILTAVAVITVQLRRQYVRKYEGEAEERKKLRQENGNVHAIA [F153L] |

Variants of: B1
Conditions: with S100A4, P26447
Remark: another data set of the same source

| effect of a mutation on the interaction | Variant |
| --- | --- |
| decreasing interaction | MRAPLLPPAPVVLSLLILGSGHYAAGLDLNDTYSGKREPFSGDHSADGFEVTSRSEMSSGSEISPVSEMPSSSEPSSGADYDYSEEYDNEPQIPGYIVDDSVRVEQVVKPPQNKTESENTSDKPKRKKKGGKNGKNRRNRKKKNPCNAEFQNFCIHGECKYIEHLEAVTAKCQQEYFGERCGEKSMKTHSMIDSSLSKIALAAIAAFMSAVILTAVAVITVQLRRQYVRKYEGEAEERKKLRQENGNVHAIA [C170A] |
| decreasing interaction | MRAPLLPPAPVVLSLLILGSGHYAAGLDLNDTYSGKREPFSGDHSADGFEVTSRSEMSSGSEISPVSEMPSSSEPSSGADYDYSEEYDNEPQIPGYIVDDSVRVEQVVKPPQNKTESENTSDKPKRKKKGGKNGKNRRNRKKKNPCNAEFQNFCIHGECKYIEHLEAVTCACQQEYFGERCGEKSMKTHSMIDSSLSKIALAAIAAFMSAVILTAVAVITVQLRRQYVRKYEGEAEERKKLRQENGNVHAIA [K171A] |
| decreasing interaction | MRAPLLPPAPVVLSLLILGSGHYAAGLDLNDTYSGKREPFSGDHSADGFEVTSRSEMSSGSEISPVSEMPSSSEPSSGADYDYSEEYDNEPQIPGYIVDDSVRVEQVVKPPQNKTESENTSDKPKRKKKGGKNGKNRRNRKKKNPCNAEFQNFCIHGECKYIEHLEAVTCKLQQEYFGERCGEKSMKTHSMIDSSLSKIALAAIAAFMSAVILTAVAVITVQLRRQYVRKYEGEAEERKKLRQENGNVHAIA [C172L] |

Reference: IntAct's records for PubMed 19740107
